Source: patent US20160289336A1 (F STAR BIOTECHNOLOGY, published 2016)

Columns and labels:
[1] = biological target: T1, dimeric HER2 (extracellular domain of HER2 with Fc tag, R&D) (human, UniProt P04626 23-652); assay: ELISA, dimeric HER2 (ECD Fc-tag) coated at 2 µg/ml, biotinylated H561-4, Strep-HRP
T1 construct: Bought protein; also called HER2 ECD Fc-tag; Fc-tagged HER2 ECD; not shown: Fc tag of the bought R&D protein
Procedure: (§1) Monomeric HER2 (HER2 ECD untagged) and dimeric HER2 (HER2 ECD Fc-tag) were immobilised at 2 μg/ml on a 96-well maxisorp plate (Nunc) in PBS overnight at 4° C. The plates were blocked for 1 hour with 200 μl of 5% BSA in PBS. […] The dilution series was removed and the plate was washed 3× with phosphate buffered saline with Tween 20 (PBST).
(§2) A 1:5000 dilution of Strep-HRP (Abcam ab) was prepared in 5% BSA and 100 μl was added to the plate and incubated for 1 hour at RT. The plate was then washed 3× with PBST before 100 μl of TMB (Roche) were added, and the plate incubated at RT for 2 mins. The reaction was stopped using 100 μl of 2 M H₂SO₄ and the plate was read at 450 nm.

[2] = biological target: T2, monomeric HER2 (extracellular domain of HER2 without tag) (human, UniProt P04626 23-652); assay: ELISA, monomeric HER2 (ECD untagged) coated at 2 µg/ml, biotinylated H561-4, Strep-HRP; monomeric HER2, not dimeric HER2
T2 construct: also called HER2 ECD untagged; untagged HER2 ECD, in house
Procedure: as §1, §2

- EC50 [1]: 1.7 nM
- EC50 [2]: 20.6 nM
B1: antigen-binding Fc fragment H561-4 (designed binder)
chain: TCPPCPAPELLGGPSVFLFPPKPKDTLMISRTPEVTCVVVDVSHEDPEVKFNWYVDGVEVHNAKTKPREEQYNSTYRVVSVLTVLHQDWLNGKEYKCKVSNKALPAPIEKTISKAKGQPREPQVYTLPPSRDEFFTYWVSLTCLVKGFYPSDIAVEWESNGQPENNYKTTPPVLDSDGSFFLYSKLTVDRRRWTAGNVFSCSVMHEALHNHYTQKSLSLSPGK
notes: C-terminal K or GK may be clipped in manufacture; also called FS102; Fcab
